Data set [1] has as its target soluble human NKR-P1 ectodomain (C-type lectin-like domain, Gly90-Ser225), glycosylated with uniform GlcNAc2Man5 N-glycans (human) (UniProt Q12918). As to the kind of experiment: AUC; sedimentation velocity of equimolar mixtures of glycosylated NKR-P1 with LLT1 or LLT1^SIM at increasing concentrations, 20 °C, SEC buffer; isotherms of weight-average S fitted to A + B ⇔ AB or A + B ⇔ AB + B ⇔ BAB (A the LLT1 dimer, B the NKR-P1 monomer).

Data set [2] is described as follows: crystal structure comparison of homodimers. To be noted: glycan lost; control: glycosylated NKR-P1 (GlcNAc2Man5), 5MGR.
The nature of another data set: CD spectroscopy. To be noted: glycan lost; control: wild-type NKR-P1 ectodomain.
A short description of data set [3]: analytical ultracentrifugation, sedimentation velocity. To be noted: glycan lost; control: wild-type NKR-P1 ectodomain.
The target of another data set is AICL (Homo sapiens) (UniProt Q92478). The conditions noted are these: cited from earlier work.
Sequence of AICL (Homo sapiens) (Q92478 whole entry): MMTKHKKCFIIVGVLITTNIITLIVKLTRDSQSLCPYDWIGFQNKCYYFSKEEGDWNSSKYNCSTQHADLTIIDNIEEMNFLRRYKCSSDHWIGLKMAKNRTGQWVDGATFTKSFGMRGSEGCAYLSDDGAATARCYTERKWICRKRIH
Data set [4] deals with the molecule itself. Nature of the data set: AUC; sedimentation velocity of the single glycosylated proteins, 48,000 rpm, 20 °C, 10 mM HEPES pH 7.5, 150 mM NaCl, 10 mM NaN3.
Data set [5] has as its target T1, soluble human NKR-P1 ectodomain (C-type lectin-like domain, Gly90-Ser225), glycosylated with uniform … (human, UniProt Q12918 90-225, Asn-GlcNAc2Man5 N-glycans; potential N-glycosylation sites Asn116, Asn157, Asn169).
T1 construct: residues at the N-terminus of the secreted protein, left from the N-terminal secretion leader of pOPINGGTneo; human NKR-P1 (CD161), extracellular CTL domain, Gly90-Ser225; For MST this protein was labelled with Atto 488 NHS-ester at pH 6.5; Monomeric in solution (AUC), a non-covalent helix α1-centered homodimer in the crystal; Ile168 stands in the structure; also called CD161; NKR-P1_glyco; …
T1 sequence: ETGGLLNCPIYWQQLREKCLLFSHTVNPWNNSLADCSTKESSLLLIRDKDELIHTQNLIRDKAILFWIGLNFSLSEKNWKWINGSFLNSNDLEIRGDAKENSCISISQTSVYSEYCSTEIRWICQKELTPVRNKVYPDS
Nature of the data set: not stated; overall Kd of this study as told in the discussion; the experiment behind it (AUC or MST) is not named there. The conditions noted are these: both partners purified.

In data set [6] the target is T1, soluble human NKR-P1 ectodomain (C-type …). As to the kind of experiment: AUC; sedimentation velocity of equimolar mixtures of glycosylated NKR-P1 with LLT1 or LLT1^SIM at increasing concentrations, 20 °C, SEC buffer; isotherms of weight-average S fitted to A + B ⇔ AB or A + B ⇔ AB + B ⇔ BAB (A the LLT1 dimer, B the NKR-P1 monomer). The conditions noted are these: both partners purified.

Results on five molecules are retold here after paper PMC9418145, “Structure of the human NK cell NKR-P1:LLT1 receptor:ligand complex reveals clustering in the immune synapse” (Nature Communications, 2022).

Regarding “LLT1^SIM, N120R, R153E, K169A secondary interaction mode triple mutant of the soluble LLT1 ectodomain (from UniProt Q9UHP7 72-191) (domain or fragment)”, the fold weaker overall affinity than the wild-type LLT1 in data set [1] stood at 3 fold.

As for NKR-P1 (CD161): Endo F1, the “structure_or_conformation, other: pairwise Cα RMSD” value in data set [2] is listed as “no change”.

As for NKR-P1 (CD161): S159A, in the data set “CD spectroscopy”, the stability_or_folding entry is “no change”. The oligomerisation entry in data set [3] is recorded as “increases”.

In general, Kd refers to the equilibrium constant for the complex coming apart. For NKp80 (from UniProt Q9NZS2), the Kd in the data set with AICL (Homo sapiens) was 2.3 µM.

B1: stabilized H176C form of the soluble human LLT1 ectodomain (Gln72-Val191), glycosylated (domain or fragment, UniProt Q9UHP7 72-191, looked up)
chain: QAACPESWIGFQRKCFYFSDDTKNWTSSQRFCDSQDADLAQVESFQELNFLLRYKGPSDHWIGLSREQGQPWKWINGTEWTRQFPILGAGECAYLNDKGASSARCYTERKWICSKSDIHV
modifications: GlcNAc2Man5 glycans
notes: human LLT1, soluble ectodomain Gln72-Val191 with the stabilising mutation H176C; also called wild-type LLT1; soluble LLT1; source: HEK293S GnTI- cells, transiently transfected, secreted, purified (IMAC on Talon, SEC)
What is called stoichiometry N is the number of molecules, sites or subunits per partner or assembly. On to B1, for which the “stoichiometry N” value in data set [4] turned out to be 2. For the same molecule, binding in data set [5] was put at a Kd of 90 µM. The “KD of the primary interaction mode” value in data set [6] was 50 µM.
